Source: US20240182536A1 (MURAL ONCOLOGY, published 2024)
Read-outs that look alike come from different tables or passages of the source.

Columns and labels:
Test in all cases: cell-based or functional assay
[1] = target: T1, IL-18 receptor (IL-18Rα and IL-18Rβ) (UniProt Q13478 19-541; O95256 20-599, limits assumed)
T1 sequence (looked up) 1: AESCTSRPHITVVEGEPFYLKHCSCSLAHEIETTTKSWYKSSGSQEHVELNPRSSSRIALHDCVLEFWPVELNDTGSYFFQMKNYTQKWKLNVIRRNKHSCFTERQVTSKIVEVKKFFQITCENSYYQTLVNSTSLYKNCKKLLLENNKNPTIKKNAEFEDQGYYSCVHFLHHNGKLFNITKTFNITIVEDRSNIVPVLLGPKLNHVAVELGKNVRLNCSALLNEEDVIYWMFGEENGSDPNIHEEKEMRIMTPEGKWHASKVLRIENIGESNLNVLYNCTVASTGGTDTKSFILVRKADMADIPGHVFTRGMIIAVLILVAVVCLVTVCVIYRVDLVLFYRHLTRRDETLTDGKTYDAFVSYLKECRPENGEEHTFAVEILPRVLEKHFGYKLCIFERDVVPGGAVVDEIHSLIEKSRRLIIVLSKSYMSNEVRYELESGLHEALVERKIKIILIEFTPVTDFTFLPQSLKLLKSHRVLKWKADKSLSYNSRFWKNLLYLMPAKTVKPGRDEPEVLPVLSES
T1 sequence (looked up) 2: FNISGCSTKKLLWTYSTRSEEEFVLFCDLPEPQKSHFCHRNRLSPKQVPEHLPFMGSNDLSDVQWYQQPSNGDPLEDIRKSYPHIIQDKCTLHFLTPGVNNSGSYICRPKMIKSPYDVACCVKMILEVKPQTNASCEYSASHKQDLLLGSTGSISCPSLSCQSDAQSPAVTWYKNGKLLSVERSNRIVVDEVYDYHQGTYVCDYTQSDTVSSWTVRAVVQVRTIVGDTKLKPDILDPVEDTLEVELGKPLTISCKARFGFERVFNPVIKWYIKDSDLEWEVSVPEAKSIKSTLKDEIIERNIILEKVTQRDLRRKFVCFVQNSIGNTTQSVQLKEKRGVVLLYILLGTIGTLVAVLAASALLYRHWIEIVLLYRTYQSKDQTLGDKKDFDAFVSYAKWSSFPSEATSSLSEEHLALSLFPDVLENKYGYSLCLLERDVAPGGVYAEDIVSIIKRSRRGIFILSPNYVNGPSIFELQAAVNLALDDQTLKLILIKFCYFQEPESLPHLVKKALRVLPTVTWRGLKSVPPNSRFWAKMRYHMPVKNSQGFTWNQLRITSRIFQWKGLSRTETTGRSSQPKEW

[2] = target: T2, interleukin 18 binding protein (IL-18BP) (UniProt O95998 31-194)
T2 sequence (looked up): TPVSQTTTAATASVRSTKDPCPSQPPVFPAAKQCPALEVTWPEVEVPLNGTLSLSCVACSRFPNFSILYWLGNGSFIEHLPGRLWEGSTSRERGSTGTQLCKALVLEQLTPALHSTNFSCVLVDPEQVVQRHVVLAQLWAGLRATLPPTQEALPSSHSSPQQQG

[3] = target: T1, IL-18 receptor (IL-18Rα and IL-18Rβ); remark: listed apart in the source
[4] = target: T2, interleukin 18 binding protein (IL-18BP); remark: listed apart in the source

Row | Binder | EC50 (pM) - BP, HEK-blue re-screening [1] [pM] | EC50 (pM) + 300 nM BP, HEK-blue re-screening [2] [pM] | Ratio (HEK-blue EC50, + 300 nM BP against - BP) [2] | EC50 (pM) - BP, HEK-blue re-screening [3] [pM] | EC50 (pM) + 100 nM BP, HEK-blue re-screening [4] [pM] | Ratio (HEK-blue EC50, + 100 nM BP against - BP) [4]
1 | IL-18 variant G3D, E6G, K53G, D54A, T63S, N91Y, R104Q (ligand) YFDKLGSKLSVIRNLNDQVLFIDQGNRPLFEDMTDSDMRDNAPRTIFIISMYGASQPRGMAVSISVKSEKISTLSSENKIISFKEMNPPDYIKDTKSDIIFFQQSVPGHDNKMQFESSSYEGYFLASEKERDLFKLILKKEDELGDRSIMFTVQNED | 2.62 | 3.11 | 1.2 | – | – | –
2 | IL-18 variant G3L, E6S, D54T, T63S, N91Y, R104Q (ligand) YFLKLSSKLSVIRNLNDQVLFIDQGNRPLFEDMTDSDMRDNAPRTIFIISMYKTSQPRGMAVSISVKSEKISTLSSENKIISFKEMNPPDYIKDTKSDIIFFQQSVPGHDNKMQFESSSYEGYFLASEKERDLFKLILKKEDELGDRSIMFTVQNED | 0.02 | 0.51 | 25.5 | – | – | –
3 | IL-18 variant G3Q, E6G, D54N, S55H, T63V, N91M, R104T (ligand) YFQKLGSKLSVIRNLNDQVLFIDQGNRPLFEDMTDSDMRDNAPRTIFIISMYKNHQPRGMAVVISVKSEKISTLSSENKIISFKEMNPPDMIKDTKSDIIFFQTSVPGHDNKMQFESSSYEGYFLASEKERDLFKLILKKEDELGDRSIMFTVQNED | – | – | – | 0.99 | 2.66 | 2.7
4 | IL-18 variant G3P, E6H, D54A, S55P, Q56K, T63S, N91M (ligand) YFPKLHSKLSVIRNLNDQVLFIDQGNRPLFEDMTDSDMRDNAPRTIFIISMYKAPKPRGMAVSISVKSEKISTLSSENKIISFKEMNPPDMIKDTKSDIIFFQRSVPGHDNKMQFESSSYEGYFLASEKERDLFKLILKKEDELGDRSIMFTVQNED | 5.4 | 8.23 | 1.5 | – | – | –
5 | IL-18 variant G3Q, E6Q, K53T, D54W, S55F, N91Y (ligand) YFQKLQSKLSVIRNLNDQVLFIDQGNRPLFEDMTDSDMRDNAPRTIFIISMYTWFQPRGMAVTISVKSEKISTLSSENKIISFKEMNPPDYIKDTKSDIIFFQRSVPGHDNKMQFESSSYEGYFLASEKERDLFKLILKKEDELGDRSIMFTVQNED | 2.36 | 2.54 | 1.1 | – | – | –
6 | IL-18 variant G3L, E6Y, D54T, T63S, N91Y, R104Q (ligand) YFLKLYSKLSVIRNLNDQVLFIDQGNRPLFEDMTDSDMRDNAPRTIFIISMYKTSQPRGMAVSISVKSEKISTLSSENKIISFKEMNPPDYIKDTKSDIIFFQQSVPGHDNKMQFESSSYEGYFLASEKERDLFKLILKKEDELGDRSIMFTVQNED | 0.03 | 0.37 | 12.3 | – | – | –
7 | IL-18 variant G3P, E6H, N91L (ligand) YFPKLHSKLSVIRNLNDQVLFIDQGNRPLFEDMTDSDMRDNAPRTIFIISMYKDSQPRGMAVTISVKSEKISTLSSENKIISFKEMNPPDLIKDTKSDIIFFQRSVPGHDNKMQFESSSYEGYFLASEKERDLFKLILKKEDELGDRSIMFTVQNED | 3.21 | 5.34 | 1.7 | – | – | –
8 | IL-18 variant G3I, E6D, D54A, S55F, N91Y, R104H (ligand) YFIKLDSKLSVIRNLNDQVLFIDQGNRPLFEDMTDSDMRDNAPRTIFIISMYKAFQPRGMAVTISVKSEKISTLSSENKIISFKEMNPPDYIKDTKSDIIFFQHSVPGHDNKMQFESSSYEGYFLASEKERDLFKLILKKEDELGDRSIMFTVQNED | – | – | – | 0.45 | 3.41 | 7.6
9 | IL-18 variant G3P, E6K, D54R, S55P, T63A, N91V (ligand) YFPKLKSKLSVIRNLNDQVLFIDQGNRPLFEDMTDSDMRDNAPRTIFIISMYKRPQPRGMAVAISVKSEKISTLSSENKIISFKEMNPPDVIKDTKSDIIFFQRSVPGHDNKMQFESSSYEGYFLASEKERDLFKLILKKEDELGDRSIMFTVQNED | 9.07 | 10.1 | 1.1 | – | – | –
